B1: h2731 (antibody, V domains shown)
VH: EVQLLESGGGLVQPGGSLRLSCAASGFTFSNYGMSWVRQAPGKGLEWVASIRSGSGRTYYSDNVKGRFTISRDNSKNTLYLQMNSLRAEDTAVYYCVRYDHYSGSSDYWGQGTLVTVSS
VL: DVVMTQSPLSLPVTLGEPASISCKSSQSLLDYDGKTYLNWLLQKPGQSPQRLIYRVTNRDTGVPDRFSGSGSGTDFTLKISRVEAEDVGVYYCWQGTHFPRSFGQGTKVEIK
notes: Humanized IgG
B2: h2931 (antibody, V domains shown)
VH: B1 VH with Y32F, I51V, S103T, S105T
VL: B1 VL
notes: Humanized IgG
B3: h2726 (antibody, V domains shown)
VH: B1 VH
VL: B1 VL with L15P, R55K, T57S, T61S, S102T
notes: Humanized IgG, detected with anti-human IgG
B4: h2831 (antibody, V domains shown)
VH: B1 VH with Y32F, I51V, S105T
VL: B1 VL
notes: Humanized IgG
B5: h2831 Fab (Fab, V domains shown)
VH: B1 VH with Y32F, I51V, S105T
VL: B1 VL
B6: h2726 Fab (Fab, V domains shown)
VH: B1 VH
VL: B1 VL with L15P, R55K, T57S, T61S, S102T
B7: h2931 Fab (Fab, V domains shown)
VH: B1 VH with Y32F, I51V, S103T, S105T
VL: B1 VL
B8: h2731 Fab (Fab, V domains shown)
VH: B1 VH
VL: B1 VL
B9: bapineuzumab Fab (Fab, V domains shown)
VH: B1 VH with S55G
VL: B1 VL with L15P, Y32S, R55L, T57S, N58K, R59L, T61S, S102T
notes: also called hBP
B10: 4918 (antibody, V domains shown)
VH: B1 VH with Y32F, I51V, S55G, S105T
VL: B1 VL with L30M, Y32T, R55K, T57S, D60E, T61S, S102T
notes: It is not in the first reading's list; also called h4918G; h4918
B11: h2826 (antibody, V domains shown)
VH: B1 VH with Y32F, I51V, S105T
VL: B1 VL with L15P, R55K, T57S, T61S, S102T
B12: h4921G (antibody, V domains shown)
VH: B1 VH with Y32F, I51V, S55G, S105T
VL: B1 VL with Y32S, S102T
B13: h49k3G (antibody, V domains shown)
VH: B1 VH with Y32F, I51V, S55G, S105T
VL: B1 VL with Y32S, R55K, T57S, T61S, S102T
notes: also called h49_hum3; 49human3
B14: h2929 (antibody, V domains shown)
VH: B1 VH with Y32F, I51V, S103T, S105T
VL: B1 VL with L15P, K24R, L30V, K44R, R55K, T57S, T61S, T97S, F103Y
B15: h2926 (antibody, V domains shown)
VH: B1 VH with Y32F, I51V, S103T, S105T
VL: B1 VL with L15P, R55K, T57S, T61S, S102T
B16: h4917G (antibody, V domains shown)
VH: B1 VH with Y32F, I51V, S55G, S105T
VL: B1 VL with Y32S, R55K, D60E, T61S
notes: also called h49_VK17
B17: h3818G (antibody, V domains shown)
VH: B1 VH with S30A, I51V, S55G, G56S
VL: B1 VL with L30M, Y32T, R55K, T57S, D60E, T61S, S102T
B18: h2727 (antibody, V domains shown)
VH: B1 VH
VL: B1 VL with L15P, R55K, T57S, T61S
B19: h2927 (antibody, V domains shown)
VH: B1 VH with Y32F, I51V, S103T, S105T
VL: B1 VL with L15P, R55K, T57S, T61S

Substitutions are numbered along the chain they refer to. Several values for one entry are separate records, joined by “and”; a condition that tells them apart may be missing. Equal values may be shown once.

One assay deals with T1, Amyloid Beta (Aβ) 1-42 (human).
T1 construct: The same peptide was used in several aggregation states: fibrils, a heterogeneous aggregate mixture, and soluble oligomers or aggregates; also called Aβ42; Aβ 42
T1 sequence (peptide, as listed by the source): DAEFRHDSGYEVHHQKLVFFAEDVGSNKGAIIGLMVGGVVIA
The experiment in a line: direct ELISA, antibody titrated on 2.5 ug/ml plate-coated fibril Abeta; the row head of the drawn table reads 'IC50', the note below it says EC50; no unit in the table, x axis 'log ng/ml antibody' [left panel]. (In an ELISA, binding on a coated surface is turned into a signal by an enzyme label.)
Turning to B1, the EC50 is 0.0387 µg/mL.

In turn, B2 registered an EC50 of 0.0435 µg/mL.

B3 registered an EC50 of 0.0403 µg/mL.

The molecule B4 had an EC50 of 0.0462 µg/mL.

A further assay has as its target T1, Amyloid Beta (Aβ) 1-42. The experiment in a line: direct ELISA on plate-coated Aβ42 fibrils (FIG. 21); this end is tied to h2831 by the EC50 values of Table 7.
On to B4, for which the “fold lower estimated EC50 relative to aducanumab” value is 15 to 20 fold.

Another assay addresses T1, Amyloid Beta (Aβ) 1-42. The experiment in a line: direct ELISA on plate-coated Aβ42 fibrils (FIG. 21).
As to B1, the “fold increase in assay signal (OD490) relative to aducanumab” value came out at 3 fold.

On to B2, for which the “fold increase in assay signal (OD490) relative to aducanumab” value worked out at 3 fold.

In the case of B3, the “fold increase in assay signal (OD490) relative to aducanumab” value is 3 fold.

Consider B4, for which the “fold increase in assay signal (OD490) relative to aducanumab” value worked out at 3 fold.

The next assay addresses T1, Amyloid Beta (Aβ) 1-42. The experiment in a line: SPR (BIAcore T200), Aβ1-42 fibrils immobilized on CM5, antibody as analyte, global 1:1 fit; apparent KD. On the technique in general: In SPR one partner is held on a chip, and binding of the other changes the refractive index at the surface.
Take B1: the Kd came out at 0.0704 nM.

Take B2: the Kd came to 0.0612 nM.

In the case of B3, the Kd is 0.054 nM.

On to B4, for which the Kd was determined as 0.111 nM.

The target in a further assay is T1, Amyloid Beta (Aβ) 1-42. The experiment in a line: SPR (BIAcore T200), Aβ1-42 fibrils immobilized on CM5, Fab as analyte, global 1:1 fit.
B5 gave an off-rate constant (koff) of 0.000248 s⁻¹ and a kon of 108000 M⁻¹ s⁻¹.

For the molecule B6, the off-rate (koff) came to 0.000259 s⁻¹ and the kon came out at 129000 M⁻¹ s⁻¹.

In turn, B7 displayed an off-rate constant (koff) of 0.000199 s⁻¹ and a kon of 123000 M⁻¹ s⁻¹.

B8 came in with a koff of 0.000289 s⁻¹ and a kon of 129000 M⁻¹ s⁻¹.

Another assay has as its target T1, Amyloid Beta (Aβ) 1-42. The experiment in a line: direct ELISA on fibrillar Aβ1-42.
Consider B1, for which the concentration for a half-maximal effect (EC50) is 0.0081 µg/mL and 0.054 nM.

For a further assay, the target named is T1, Amyloid Beta (Aβ) 1-42. The experiment in a line: SPR on Aβ1-42 fibrils; this end is tied to h2726 by the KD values of Table 6.
In the case of B3, the “fold greater avidity (apparent KD) than aducanumab” value fell in the range of 5 to 11 fold.

A further assay addresses T1, Amyloid Beta (Aβ) 1-42. The experiment in a line: cell-based or functional assay.
With B1, the “blockade of binding of soluble Aβ to rat hippocampal synapses at 1:50 molar mAb:Aβ42 ratio” value is over 90%.

In the next assay the target is T1, Amyloid Beta (Aβ) 1-42. The experiment in a line: direct ELISA, fibril aBeta plate coat titrated, antibody held constant at 2 ug/ml; no unit in the table, x axis 'log ng/ml Abeta' [right panel].
Consider B1, for which the “IC50 (half-maximal fibril Abeta coating concentration at constant antibody)” value is 0.44 µg/mL.

Consider B2, for which the “IC50 (half-maximal fibril Abeta coating concentration at constant antibody)” value worked out at 0.335 µg/mL.

Turning to B3, the “IC50 (half-maximal fibril Abeta coating concentration at constant antibody)” value is 0.387 µg/mL.

As to B4, the “IC50 (half-maximal fibril Abeta coating concentration at constant antibody)” value came out at 0.412 µg/mL.

Another assay addresses T1, Amyloid Beta (Aβ) 1-42. The experiment in a line: SPR (BIAcore T200), Aβ1-42 fibrils immobilized on CM5, Fab as analyte, global 1:1 fit; apparent KD.
As to B5, the Kd came out at 2.31 nM.

As for B9, the Kd came out at 5.34 nM.

On to B6, for which the Kd was found to be 2.01 nM.

Take B7: the Kd stood at 1.62 nM.

Take B8: the Kd is 2.24 nM.

In another assay the target is T1, Amyloid Beta (Aβ) 1-42. The experiment in a line: competition ELISA on plate-coated Aβ42 fibrils; competitor: biotinylated hBP (bapineuzumab).
In the case of B10, the binding result is “binds”.

The target of the next assay is T1, Amyloid Beta (Aβ) 1-42. The experiment in a line: direct ELISA on plate-coated Aβ42 fibrils (FIG. 21); this end is tied to h2726 by the EC50 values of Table 7.
For B3, the “fold lower estimated EC50 relative to aducanumab” value is 15 to 20 fold.

For the next assay, the target named is T1, Amyloid Beta (Aβ) 1-42. The experiment in a line: SPR (BIAcore T200), Aβ1-42 fibrils immobilized on CM5, antibody as analyte, global 1:1 fit.
B1 had an off-rate (koff) of 2.62e-05 s⁻¹ and a kon of 372000 M⁻¹ s⁻¹.

B2 displayed a koff of 2.05e-05 s⁻¹ and an on-rate (kon) of 335000 M⁻¹ s⁻¹.

In turn, B3 registered an off-rate constant (koff) of 2.12e-05 s⁻¹ and an on-rate (kon) of 393000 M⁻¹ s⁻¹.

Molecule B4 gave an off-rate constant (koff) of 2.94e-05 s⁻¹ and an association rate constant (kon) of 265000 M⁻¹ s⁻¹.

The target in another assay is T1, Amyloid Beta (Aβ) 1-42. The experiment in a line: cell-based or functional assay. This is another data set of the same source.
Regarding B1, the “IC50 of Abeta spots per neuron (% Abeta control); the table gives no unit, the x axis is 'mAb (µg/mL)'” value came to 0.47 µg/mL and the “Total Area (under the curve of Abeta spots per neuron, % Abeta control)” value was 7520.

Consider B2, for which the “IC50 of Abeta spots per neuron (% Abeta control); the table gives no unit, the x axis is 'mAb (µg/mL)'” value was found to be 0.627 µg/mL and the “Total Area (under the curve of Abeta spots per neuron, % Abeta control)” value turned out to be 8480.

As to B3, the “IC50 of Abeta spots per neuron (% Abeta control); the table gives no unit, the x axis is 'mAb (µg/mL)'” value worked out at 1.67 µg/mL and the “Total Area (under the curve of Abeta spots per neuron, % Abeta control)” value was found to be 9070.

On to B4, for which the “IC50 of Abeta spots per neuron (% Abeta control); the table gives no unit, the x axis is 'mAb (µg/mL)'” value stood at 0.924 µg/mL and the “Total Area (under the curve of Abeta spots per neuron, % Abeta control)” value was 6500.

The target of a further assay is T1, Amyloid Beta (Aβ) 1-42. The experiment in a line: competition ELISA, plate coated with fibril Aβ42, competitor hBP-biotin; IC50 of test divided by IC50 of hBP.
Take B1: the “IC50 ratio (test:hBP)” value came to 0.61.

Turning to B11, the “IC50 ratio (test:hBP)” value came to 1.1.

In the case of B12, the “IC50 ratio (test:hBP)” value was found to be 1.01.

For B13, the “IC50 ratio (test:hBP)” value amounted to 2.16.

For the molecule B2, the “IC50 ratio (test:hBP)” value came to 0.59.

Consider B14, for which the “IC50 ratio (test:hBP)” value stood at 1.16.

For the molecule B15, the “IC50 ratio (test:hBP)” value came to 0.99.

B16: the “IC50 ratio (test:hBP)” value came to 2.69.

For the molecule B17, the “IC50 ratio (test:hBP)” value came out at 1.18.

As for B3, the “IC50 ratio (test:hBP)” value stood at 0.68.

In the case of B18, the “IC50 ratio (test:hBP)” value came to 3.06.

Regarding B19, the “IC50 ratio (test:hBP)” value is 1.6.

For B4, the “IC50 ratio (test:hBP)” value was 0.77.

The target in another assay is T1, Amyloid Beta (Aβ) 1-42. The experiment in a line: SPR on Aβ1-42 fibrils; this end is tied to h2831 by the KD values of Table 6.
Regarding B4, the “fold greater avidity (apparent KD) than aducanumab” value lay within 5 to 11 fold.

One may read the EC50 as the midpoint of the concentration-response curve. A lower EC50 goes with a more potent agent. Usually koff stands for the rate constant with which the complex falls apart. A high value points to fast dissociation. By kon is commonly meant the rate constant with which the complex forms.
